Consider 80 sequences from the supplement of paper PMC10724198.

± gives the standard deviation of the averaged measurements.
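Note: PSI is a weighted mean of sequencing reads over stability bins, variants kept only with over 10 reads, mCherry proximal and sfGFP distal, peptide attached via GGGS linker.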

The data set has as its system Saccharomyces cerevisiae. The data set is described as follows: protein stability index of tFT-peptide fusion (C-terminal peptide) (PSI (0-1 scale)); higher = more stable (slower turnover). Particulars: genetic background: wild type; temperature: 30 C.
The sequence SSKVFCRVAKRE registered a protein stability index of 0.724 ± 0.026.
SSLLLLFYPPLP displayed a protein stability index of 0.712 ± 0.016.
In turn, SSLPALRSPCHP gave a protein stability index of 0.738 ± 0.06.
In the case of SSLPPLRPFSPS, the protein stability index worked out at 0.726 ± 0.075.
Regarding SSLPPPPRSPPH, the protein stability index was found to be 0.715 ± 0.029.
For SSLPRPSHSLSL, the protein stability index is 0.617 ± 0.068.
Take SSLRPPPPLPPP: the protein stability index came out at 0.682 ± 0.012.
Sequence SSLSPPPPLPPW came in with a protein stability index of 0.706 ± 0.075.
SSNSRPTGSGGS showed a protein stability index of 0.694 ± 0.1.
Turning to SSPLPPPHASHP, the protein stability index is 0.7104 ± 0.0043.
Regarding SSPLPPSLPSSR, the protein stability index turned out to be 0.671 ± 0.025.
SSPLWDGLPRLT yielded a protein stability index of 0.736 ± 0.028.
As to SSPPPAFPRASP, the protein stability index came out at 0.633 ± 0.015.
In turn, SSPPPPVPPPPS had a protein stability index of 0.725 ± 0.082.
Sequence SSPPSPPPPTPS yielded a protein stability index of 0.702 ± 0.031.
As to SSPSFVVFPFVS, the protein stability index came out at 0.685 ± 0.017.
In turn, SSPSPALLFPAR had a protein stability index of 0.715 ± 0.036.
On to SSPSSLPAPPSA, for which the protein stability index worked out at 0.666 ± 0.039.
SSRLLRGGTGFL: the protein stability index turned out to be 0.722 ± 0.029.
For SSRPPLPPPRIH, the protein stability index was 0.618 ± 0.017.
SSRRVGRWGGLG displayed a protein stability index of 0.618 ± 0.11.
On to SSRYVATANICR, for which the protein stability index came to 0.69 ± 0.013.
In the case of SSSCRGGVSVLV, the protein stability index is 0.679 ± 0.044.
On to SSSRHHTSLFSP, for which the protein stability index came out at 0.679 ± 0.014.
With SSSYPFPAPALR, the protein stability index came to 0.683 ± 0.043.
For SSTVGKEGTSRI the value was 0.69 ± 0.048.
On to SSVNRTADGTKP, for which the protein stability index came out at 0.69 ± 0.02.
On to SSWWPVRRTRLG, for which the protein stability index came out at 0.587 ± 0.022.
As for SSYYTGVVTACL, the protein stability index turned out to be 0.659 ± 0.052.
Regarding STAELSNSLIGR, the protein stability index was 0.703 ± 0.033.
On to STGSAISSLSDR, for which the protein stability index was determined as 0.68 ± 0.11.
The sequence STHLPPLPATLP gave a protein stability index of 0.784 ± 0.1.
In turn, STILSAEKTKLG registered a protein stability index of 0.707 ± 0.02.
STNIDQKKKEEK gave a protein stability index of 0.7 ± 0.03.
Turning to STPPPPHSASRS, the protein stability index was found to be 0.728 ± 0.059.
For the sequence STPRLERDGTTI, the protein stability index was found to be 0.635 ± 0.014.
In the case of STRLFTHPRFLP, the protein stability index worked out at 0.68 ± 0.013.
For STSRSFFFCSFL the value was 0.644 ± 0.072; for STSSPSSSTLLP, 0.719 ± 0.031; for STSWDDLLYHSG, 0.716 ± 0.059.
For STTLKIHRKNRK the value was 0.725 ± 0.063; for STTQFTLSATRI, 0.717 ± 0.093.
For STVKARVLIITS the value was 0.5231 ± 0.0032; for STVTSGCLKRIS, 0.723 ± 0.03.
In turn, STYIMTFTSWEP returned a protein stability index of 0.68 ± 0.0078.
SVCLLKSWHERQ: the protein stability index was found to be 0.725 ± 0.033.
Sequence SVDEARSVRCVI gave a protein stability index of 0.661 ± 0.025.
The sequence SVFFFLPIYFPF showed a protein stability index of 0.633 ± 0.033.
The sequence SVFVDNLAFSLD displayed a protein stability index of 0.708 ± 0.071.
For SVGFYMLECVDD the value was 0.688 ± 0.0099; for SVGGVGVEIQSV, 0.629 ± 0.15.
In the case of SVGVGSFVVLGV, the protein stability index amounted to 0.6543 ± 0.0024.
The sequence SVHRRRSLLTPL had a protein stability index of 0.706 ± 0.05.
Sequence SVKHTFAHSVNS showed a protein stability index of 0.6442 ± 0.0018.
For SVKTGAAKDRLE, the protein stability index amounted to 0.6929 ± 0.003.
In turn, SVLDAVGGSVTA registered a protein stability index of 0.668 ± 0.092.
For SVLRPPAAPPFL, the protein stability index turned out to be 0.674 ± 0.046.
In turn, SVLVLGRSRPSF showed a protein stability index of 0.688 ± 0.047.
Turning to SVLWLSSLRVPL, the protein stability index is 0.7074 ± 0.0032.
SVPTSLCYSFSP came in with a protein stability index of 0.5957 ± 0.0034.
SVRAHGDIQIPR: the protein stability index was found to be 0.732 ± 0.073.
Regarding SVRHPPWDHRPP, the protein stability index amounted to 0.571 ± 0.083.
Regarding SVSCVSRTVAPS, the protein stability index was 0.684 ± 0.027.
SVSTDTLQVYAI had a protein stability index of 0.658 ± 0.013.
The sequence SVSVFLMGLRGT yielded a protein stability index of 0.694 ± 0.015.
SVTDCTADHASV came in with a protein stability index of 0.653 ± 0.056.
Sequence SVTLYLTPPSLT had a protein stability index of 0.67 ± 0.062.
Sequence SVTPSPPPSRPF yielded a protein stability index of 0.678 ± 0.057.
In turn, SVVSLLCQFLLG registered a protein stability index of 0.673 ± 0.13.
On to SVWVCLASWCCG, for which the protein stability index was found to be 0.5487 ± 0.0038.
For SVYLKLSECRSV the value was 0.6877 ± 0.0018.
SVYLPFPSGLLL gave a protein stability index of 0.728 ± 0.073.
SWTEPISNTVLP: the protein stability index is 0.77 ± 0.034.
In the case of SYGWYRVRLLDC, the protein stability index is 0.57 ± 0.088.
SYLWRINVSGCV displayed a protein stability index of 0.6955 ± 0.0013.
SYPTRSKSAYSL showed a protein stability index of 0.652 ± 0.059.
For SYSSILPPLSSA the value was 0.686 ± 0.022.
SYVLIYAPLSSL: the protein stability index was 0.661 ± 0.036.
As to SYVYMIQRANAV, the protein stability index came out at 0.5609 ± 0.004.
For TAATLVYKQNQK the value was 0.66 ± 0.12.
